One block for each substance: values may come before it.
What was measured:
[1] = molecular target: origin recognition complex (ORC), wild type, unphosphorylated (S. cerevisiae) (UniProt P54784); experiment: colocalization single-molecule spectroscopy (CoSMoS); surface-tethered ARS1 DNA^AF488; 2.5 nM ORC, 10 nM Cdc6, 2.5 nM labeled Mcm2-7-Cdt1, ATP; time to the first Mcm2-7 association with each DNA, taken by the paper as OCCM formation; apparent first-order association rate, background binding at non-DNA sites fitted; conditions: remark: other sources report otherwise
[2] = molecular target: phosphorylated origin recognition complex (ORC treated with Clb5-Cdk1 and ATP) (S. cerevisiae) (UniProt P54784); experiment: as above; conditions: remark: other sources report otherwise
[3] = molecular target: ORC^6C-DY549, wild type, without CDK treatment (S. cerevisiae) (UniProt P54784); experiment: FRET or BRET; single-molecule FRET on surface-tethered ARS1 DNA between ORC^6C-DY549 (donor on Orc6 C-terminus) and Mcm2-7^3N-DY650 (acceptor on Mcm3 N terminus), with Cdc6 and Cdt1; MO complex (ORC on the N-terminal face of Mcm2-7) scored if E_FRET > 0.5 for two consecutive frames; low E_FRET in the OCCM
Mcm4 = Mcm4 (UniProt P30665); experiment: CoSMoS: labelled Mcm2-7 arrival at ORC-Cdc6-bound DNA; conditions: reference: wild-type ORC, no CDK

apparent first-order association rate ka of first Mcm2-7-Cdt1 recruitment (OCCM formation) [1]: 0.0047 s⁻¹ | apparent first-order association rate ka of first Mcm2-7-Cdt1 recruitment (OCCM formation) [2]: 0.002 s⁻¹
Substance: Cdt1-Mcm2-7^4SNAP-JF646 (Mcm2-7-Cdt1 complex, Mcm2-7 fluorescently labeled at the N-terminus of Mcm4), P29469 1-868; P24279 1-971; P30665 1-933; P29496 1-775; P53091 1-1017; P38132 1-845; P47112 1-604

percent of first Mcm2-7 landings with the high-E FRET state (MO complex formation) [3]: 21%
Substance: Mcm2-7^3N-DY650 (Mcm2-7 complex with an acceptor fluorophore at the N terminus of Mcm3) (from UniProt P29469 1-868; P24279 1-971; P30665 1-933; P29496 1-775; P53091 1-1017; P38132 1-845)

other: apparent association rate ka (Mcm4): weaker; reference 0.0047 ± 0.0003
Substance: Orc6 (from UniProt P38826) wild-type ORC treated with Clb5-Cdk1 and ATP

Reference: publication PMC10629557
